From paper PMC11965522 (Communications Biology, 2025)
Changes are numbered by the printed parent chain.

B1: P. furiosus Rad50^NBD [change] [change]/[change], fluorophore-labeled (domain or fragment)
chain: MKLERVTVKNFRSHSDTVVEFKEGINLIIGQNGSGKSSLLDAILVGLYWPCRIKDIKKDEFTKVGARDTYIDLIFEKDGTKYRITRRFLKGYSSGEIHAMKRLVGNEWKHVTEPEEKAISAFMEKLIPYNIFLNAIYIRQGQIDAILESDEAREKVVREVLNLDKFETAYKKLSELKKTINNRIKEYRDILARTEGGAGGAGGRERVKKEIKDLEKAKDFTEELIEKVKKYKALAREAALSKIGELASEIFAEFTEGKYSEVVVRAEENKVRLFVVWEGKERPLTFLSGGERIALGLAFRLAMSLYLAGEISLLILDEPTPYLDEERRRKLITIMERYLKKIPQVILVSHDEELKDAADHVIRISLENGSSKVEVVS
B2: P. furiosus Rad50^NBD [change] [change]/[change], fluorophore-labeled (domain or fragment)
chain: B1 chain with E115S, E116S, R328E, R329E
B3: P. furiosus Rad50^NBD [change] [change], fluorophore-labeled (domain or fragment)
chain: B1 chain with E115S, E116S, R363E
B4: P. furiosus Rad50^NBD [change] [change], fluorophore-labeled (domain or fragment)
chain: B1 chain with E115S, E116S, K172E
B5: P. furiosus Rad50 nucleotide-binding domain construct (aa 1-195 - GGAGGAGG linker - aa 709-882) (domain or fragment)
chain: B1 chain with C51L, E115S, E116S

target: T1, P. furiosus (Pf) Mre11, wild type (P. furiosus, UniProt Q8U1N9 1-426); test: FRET or BRET

Row | binding result | Binder
1 | binds | B1
2 | binds | B2
3 | binds | B3
4 | binds | B4

Target: the molecule itself
Test: FRET or BRET

Row | Binder | binding result
5 | B1 | binds
6 | B2 | binds
7 | B3 | binds
8 | B4 | binds

target: T1, P. furiosus (Pf) Mre11, wild type; test: SEC

Row | binding result | Binder
9 | binds | B5
